The values that follow come from publication PMC6586323, “Comparative analysis of the metal-dependent structural and functional properties of mouse and human SMP30” (PLoS ONE, 2019).

Test in all cases: purified protein
Substrate in series [1]: O=C1CCCS1
The class given is biochemical, Mus musculus. Particulars: 1 mM Ca2+, 50 mM Tris-HCl pH 7.0, 0.1 mM DTNB, substrate range 1-10 mM.

Substrate in series [2]: CCOP(=O)(OCC)SCCSCC
The class given is biochemical, Mus musculus. Particulars: 1 mM Ca2+, 50 mM Tris-HCl pH 8.0, 0.1 mM DTNB, substrate range 1-10 mM.

Substrate in series [3]: O=C1CCCS1
In kind it is biochemical, Homo sapiens. Particulars: 1 mM Ca2+, 50 mM Tris-HCl pH 7.0, 0.1 mM DTNB, substrate range 1-10 mM.

Substrate in series [4]: CCOP(=O)(OCC)SCCSCC
In kind it is biochemical, Homo sapiens. Particulars: 1 mM Ca2+, 50 mM Tris-HCl pH 8.0, 0.1 mM DTNB, substrate range 1-10 mM.

B1: MoSMP30 (Mus musculus) (protein)
chain: MSSIKVECVLRENYRCGESPVWEEASQSLLFVDIPSKIICRWDTVSNQVQRVAVDAPVSSVALRQLGGYVATIGTKFCALNWENQSVFVLAMVDEDKKNNRFNDGKVDPAGRYFAGTMAEETAPAVLERHQGSLYSLFPDHSVKKYFDQVDISNGLDWSLDHKIFYYIDSLSYTVDAFDYDLQTGQISNRRIVYKMEKDEQIPDGMCIDAEGKLWVACYNGGRVIRLDPETGKRLQTVKLPVDKTTSCCFGGKDYSEMYVTCARDGLNAEGLLRQPDAGNIFKITGLGVKGIAPYSYAG
Broadly, the Km is the substrate concentration at which the rate is half of its maximum. The Vmax is the top rate of the reaction or transport when substrate is in excess. Usually kcat stands for the maximal rate divided by the concentration of active sites. As usually defined, the kcat/Km is the second-order rate constant that governs catalysis at low substrate concentration. Take B1: in the series “purified protein [1]”, the Km was determined as 39.49 ± 7.9 mM, the Vmax is 0.286 µM/min, the kcat came to 0.0647 s⁻¹ and the kcat/Km is 1.63 M⁻¹ s⁻¹. In addition, in “purified protein [2]”, the Michaelis-Menten constant (Km) was 3.57 ± 1.5 mM, the Vmax was 0.0085 µM/min, the turnover number (kcat) is 0.00193 s⁻¹ and the kcat/Km was determined as 0.533 M⁻¹ s⁻¹.

B2: HuSMP30 (Homo sapiens) (protein)
chain: MSSIKIECVLPENCRCGESPVWEEVSNSLLFVDIPAKKVCRWDSFTKQVQRVTMDAPVSSVALRQSGGYVATIGTKFCALNWKEQSAVVLATVDNDKKNNRFNDGKVDPAGRYFAGTMAEETAPAVLERHQGALYSLFPDHHVKKYFDQVDISNGLDWSLDHKIFYYIDSLSYSVDAFDYDLQTGQISNRRSVYKLEKEEQIPDGMCIDAEGKLWVACYNGGRVIRLDPVTGKRLQTVKLPVDKTTSCCFGGKNYSEMYVTCARDGMDPEGLLRQPEAGGIFKITGLGVKGIAPYSYAG
For the protein B2, in “purified protein [3]”, the Km is 19.8 ± 2.9 mM, the Vmax was found to be 0.453 µM/min, the turnover number (kcat) was 0.102 s⁻¹ and the specificity constant (kcat/Km) was 5.17 M⁻¹ s⁻¹. Further, in the series “purified protein [4]”, the Km stood at 17.45 ± 5 mM, the Vmax was found to be 0.0357 µM/min, the kcat was determined as 0.00808 s⁻¹ and the specificity constant (kcat/Km) was 0.467 M⁻¹ s⁻¹.
